Data: IntAct's records for PubMed 19037309

B1: DELLA protein GAI (Arabidopsis thaliana (Mouse-ear cress)), Q9LQT8 (parent)
chain: MKRDHHHHHHQDKKTMMMNEEDDGNGMDELLAVLGYKVRSSEMADVAQKLEQLEVMMSNVQEDDLSQLATETVHYNPAELYTWLDSMLTDLNPPSSNAEYDLKAIPGDAILNQFAIDSASSSNQGGGGDTYTTNKRLKCSNGVVETTTATAESTRHVVLVDSQENGVRLVHALLACAEAVQKENLTVAEALVKQIGFLAVSQIGAMRKVATYFAEALARRIYRLSPSQSPIDHSLSDTLQMHFYETCPYLKFAHFTANQAILEAFQGKKRVHVIDFSMSQGLQWPALMQALALRPGGPPVFRLTGIGPPAPDNFDYLHEVGCKLAHLAEAIHVEFEYRGFVANTLADLDASMLELRPSEIESVAVNSVFELHKLLGRPGAIDKVLGVVNQIKPEIFTVVEQESNHNSPIFLDRFTESLHYYSTLFDSLEGVPSGQDKVMSEVYLGKQICNVVACDGPDRVERHETLSQWRNRFGSAGFAAAHIGSNAFKQASMLLALFNGGEGYRVEESDGCLMLGWHTRPLIATSAWKLSTN
partner: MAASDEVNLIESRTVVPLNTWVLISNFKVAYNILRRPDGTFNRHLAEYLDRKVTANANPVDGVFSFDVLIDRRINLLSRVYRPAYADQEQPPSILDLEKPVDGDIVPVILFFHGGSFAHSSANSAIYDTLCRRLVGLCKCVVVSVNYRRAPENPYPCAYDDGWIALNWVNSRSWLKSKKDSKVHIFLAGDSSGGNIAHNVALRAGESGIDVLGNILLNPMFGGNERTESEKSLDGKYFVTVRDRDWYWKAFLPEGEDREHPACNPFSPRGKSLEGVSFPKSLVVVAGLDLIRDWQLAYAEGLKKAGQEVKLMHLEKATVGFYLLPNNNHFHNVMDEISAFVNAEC

Variants of: B1
Conditions: with gid1a_arath GID1A

Variant | effect of a mutation on the interaction
MKRDHHHHHHQDKKTMMMNEEDDGNGMDELAAVLGYKARSSEMADVAQKLEQLEVMMSNVQEDDLSQLATETVHYNPAELYTWLDSMLTDLNPPSSNAEYDLKAIPGDAILNQFAIDSASSSNQGGGGDTYTTNKRLKCSNGVVETTTATAESTRHVVLVDSQENGVRLVHALLACAEAVQKENLTVAEALVKQIGFLAVSQIGAMRKVATYFAEALARRIYRLSPSQSPIDHSLSDTLQMHFYETCPYLKFAHFTANQAILEAFQGKKRVHVIDFSMSQGLQWPALMQALALRPGGPPVFRLTGIGPPAPDNFDYLHEVGCKLAHLAEAIHVEFEYRGFVANTLADLDASMLELRPSEIESVAVNSVFELHKLLGRPGAIDKVLGVVNQIKPEIFTVVEQESNHNSPIFLDRFTESLHYYSTLFDSLEGVPSGQDKVMSEVYLGKQICNVVACDGPDRVERHETLSQWRNRFGSAGFAAAHIGSNAFKQASMLLALFNGGEGYRVEESDGCLMLGWHTRPLIATSAWKLSTN [L31A;V38A] | disrupting interaction
MKRDHHHHHHQDKKTMMMNEEDDGNGMDELLAVLGAKVRSSEMADVAQKLEQLEVMMSNVQEDDLSQLATETVHYNPAELYTWLDSMLTDLNPPSSNAEYDLKAIPGDAILNQFAIDSASSSNQGGGGDTYTTNKRLKCSNGVVETTTATAESTRHVVLVDSQENGVRLVHALLACAEAVQKENLTVAEALVKQIGFLAVSQIGAMRKVATYFAEALARRIYRLSPSQSPIDHSLSDTLQMHFYETCPYLKFAHFTANQAILEAFQGKKRVHVIDFSMSQGLQWPALMQALALRPGGPPVFRLTGIGPPAPDNFDYLHEVGCKLAHLAEAIHVEFEYRGFVANTLADLDASMLELRPSEIESVAVNSVFELHKLLGRPGAIDKVLGVVNQIKPEIFTVVEQESNHNSPIFLDRFTESLHYYSTLFDSLEGVPSGQDKVMSEVYLGKQICNVVACDGPDRVERHETLSQWRNRFGSAGFAAAHIGSNAFKQASMLLALFNGGEGYRVEESDGCLMLGWHTRPLIATSAWKLSTN [Y36A] | decreasing interaction
MKRDHHHHHHQDKKTMMMNEEDDGNGMDELLAVLGYKVRSSEMADVAQKLRQLRVMMSNVQEDDLSQLATETVHYNPAELYTWLDSMLTDLNPPSSNAEYDLKAIPGDAILNQFAIDSASSSNQGGGGDTYTTNKRLKCSNGVVETTTATAESTRHVVLVDSQENGVRLVHALLACAEAVQKENLTVAEALVKQIGFLAVSQIGAMRKVATYFAEALARRIYRLSPSQSPIDHSLSDTLQMHFYETCPYLKFAHFTANQAILEAFQGKKRVHVIDFSMSQGLQWPALMQALALRPGGPPVFRLTGIGPPAPDNFDYLHEVGCKLAHLAEAIHVEFEYRGFVANTLADLDASMLELRPSEIESVAVNSVFELHKLLGRPGAIDKVLGVVNQIKPEIFTVVEQESNHNSPIFLDRFTESLHYYSTLFDSLEGVPSGQDKVMSEVYLGKQICNVVACDGPDRVERHETLSQWRNRFGSAGFAAAHIGSNAFKQASMLLALFNGGEGYRVEESDGCLMLGWHTRPLIATSAWKLSTN [E51R;E54R] | disrupting interaction
MKRDHHHHHHQDKKTMMMNEEDDGNGMDELLAVLGAKVRSSEAADVAQKLEQLEVMMSNVQEDDLSQLATETVHYNPAELYTWLDSMLTDLNPPSSNAEYDLKAIPGDAILNQFAIDSASSSNQGGGGDTYTTNKRLKCSNGVVETTTATAESTRHVVLVDSQENGVRLVHALLACAEAVQKENLTVAEALVKQIGFLAVSQIGAMRKVATYFAEALARRIYRLSPSQSPIDHSLSDTLQMHFYETCPYLKFAHFTANQAILEAFQGKKRVHVIDFSMSQGLQWPALMQALALRPGGPPVFRLTGIGPPAPDNFDYLHEVGCKLAHLAEAIHVEFEYRGFVANTLADLDASMLELRPSEIESVAVNSVFELHKLLGRPGAIDKVLGVVNQIKPEIFTVVEQESNHNSPIFLDRFTESLHYYSTLFDSLEGVPSGQDKVMSEVYLGKQICNVVACDGPDRVERHETLSQWRNRFGSAGFAAAHIGSNAFKQASMLLALFNGGEGYRVEESDGCLMLGWHTRPLIATSAWKLSTN [Y36A;M43A] | disrupting interaction
